Test results: article PMC6355928

Target: Rheb (UniProt Q15382)
Assay: co-immunoprecipitation, Western blot
Settings: reference: USP4 wild type; sites S445

- binding against the reference: weaker
Substance: USP4 (from UniProt Q13107) USP4-S445A
